Values quoted from earlier work in PMC10451079.

Legend:
[1] = target: NGALR (Mus musculus) (UniProt Q9D9E0); assay: ligand-cell binding, Scatchard
[2] = target: MC3R (UniProt P41968)
[3] = target: MC1R (UniProt Q01726)
[4] = target: MC4R (UniProt P32245); assay: saturation and competition binding
[5] = target: LRP2 (megalin) (Homo sapiens) (UniProt P98164); assay: SPR
[6] = target: NGALR 1-105 (Homo sapiens) (UniProt Q8WUG5)
[7] = target: megalin (Homo sapiens) (UniProt P98164)

Chain of UniProt Q8WUG5 (Q8WUG5 1-105): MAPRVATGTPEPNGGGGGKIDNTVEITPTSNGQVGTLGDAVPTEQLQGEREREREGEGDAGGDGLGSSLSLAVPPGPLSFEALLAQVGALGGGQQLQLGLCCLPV
Chain of UniProt Q9D9E0 (Q9D9E0 whole entry): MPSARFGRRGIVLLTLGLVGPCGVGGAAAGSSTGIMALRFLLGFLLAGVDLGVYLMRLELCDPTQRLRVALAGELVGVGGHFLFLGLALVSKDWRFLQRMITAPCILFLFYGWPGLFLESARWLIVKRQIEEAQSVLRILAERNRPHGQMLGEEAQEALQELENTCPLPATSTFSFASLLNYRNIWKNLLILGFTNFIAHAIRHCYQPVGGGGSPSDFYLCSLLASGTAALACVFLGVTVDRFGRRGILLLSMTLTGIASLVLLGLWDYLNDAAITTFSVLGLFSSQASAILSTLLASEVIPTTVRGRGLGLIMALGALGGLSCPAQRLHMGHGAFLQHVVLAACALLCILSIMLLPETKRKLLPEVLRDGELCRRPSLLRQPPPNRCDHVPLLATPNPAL
Chain of UniProt Q01726 (Q01726 whole entry): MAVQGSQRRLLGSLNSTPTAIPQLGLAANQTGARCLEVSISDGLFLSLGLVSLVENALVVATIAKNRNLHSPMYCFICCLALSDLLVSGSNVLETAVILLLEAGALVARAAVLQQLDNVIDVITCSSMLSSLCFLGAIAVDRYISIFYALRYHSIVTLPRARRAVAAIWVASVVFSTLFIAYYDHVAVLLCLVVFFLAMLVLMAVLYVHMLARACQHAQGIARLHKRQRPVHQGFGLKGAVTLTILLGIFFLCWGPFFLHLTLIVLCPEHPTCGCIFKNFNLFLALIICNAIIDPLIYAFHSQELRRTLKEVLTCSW
Chain of UniProt P41968 (P41968 whole entry): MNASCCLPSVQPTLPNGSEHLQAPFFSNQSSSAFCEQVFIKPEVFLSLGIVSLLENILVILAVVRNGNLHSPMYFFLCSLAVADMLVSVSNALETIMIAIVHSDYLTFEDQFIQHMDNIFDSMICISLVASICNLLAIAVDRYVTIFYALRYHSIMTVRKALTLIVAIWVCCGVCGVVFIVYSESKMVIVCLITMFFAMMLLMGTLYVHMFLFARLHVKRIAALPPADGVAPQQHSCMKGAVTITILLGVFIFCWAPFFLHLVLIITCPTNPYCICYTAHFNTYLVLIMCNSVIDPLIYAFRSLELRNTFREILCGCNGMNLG
Chain of UniProt P32245 (P32245 whole entry): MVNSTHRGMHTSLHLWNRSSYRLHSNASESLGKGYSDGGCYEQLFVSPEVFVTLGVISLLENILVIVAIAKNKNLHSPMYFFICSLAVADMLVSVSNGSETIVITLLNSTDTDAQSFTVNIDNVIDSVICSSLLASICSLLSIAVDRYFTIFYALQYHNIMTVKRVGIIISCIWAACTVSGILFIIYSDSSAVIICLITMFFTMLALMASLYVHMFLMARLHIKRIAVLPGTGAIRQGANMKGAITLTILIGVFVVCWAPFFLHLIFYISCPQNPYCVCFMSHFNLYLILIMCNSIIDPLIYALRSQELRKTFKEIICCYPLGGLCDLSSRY

LCN2 (24p3) (from UniProt P11672)
Kd [1]: 0.092 nM

LCN2 (from UniProt P11672)
Kd [2]: 82.1 nM | Kd [3]: 87 nM | Kd [4]: 51.4 nM

LCN2 (from UniProt P80188)
Kd [5]: 60 nM

LCN2 with ferric-enterobactin (from UniProt P80188)
Kd [6]: 20000 nM

α1M (from UniProt P02760)
Kd [7]: 420 nM
